Test results published in CN117990807A (BEIJING DONGFANG BIOTECH CO LTD; BEIJING JINGYI TAIXIANG …, dated 2024).
Substitutions are numbered along the chain they refer to.

T1: 鼠TSLP-His (mouse, UniProt Q9JIE6 20-140)
T1 construct: Bought protein; also called TSLP(Mouse); not shown: His tag
T1 sequence (looked up): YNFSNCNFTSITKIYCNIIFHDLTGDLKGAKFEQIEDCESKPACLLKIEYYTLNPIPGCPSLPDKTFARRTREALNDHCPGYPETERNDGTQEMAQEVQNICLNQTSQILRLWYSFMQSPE

B1: 嵌合抗体CA-Ⅰ (antibody, human IgG1, kappa, L234A L235A)
heavy: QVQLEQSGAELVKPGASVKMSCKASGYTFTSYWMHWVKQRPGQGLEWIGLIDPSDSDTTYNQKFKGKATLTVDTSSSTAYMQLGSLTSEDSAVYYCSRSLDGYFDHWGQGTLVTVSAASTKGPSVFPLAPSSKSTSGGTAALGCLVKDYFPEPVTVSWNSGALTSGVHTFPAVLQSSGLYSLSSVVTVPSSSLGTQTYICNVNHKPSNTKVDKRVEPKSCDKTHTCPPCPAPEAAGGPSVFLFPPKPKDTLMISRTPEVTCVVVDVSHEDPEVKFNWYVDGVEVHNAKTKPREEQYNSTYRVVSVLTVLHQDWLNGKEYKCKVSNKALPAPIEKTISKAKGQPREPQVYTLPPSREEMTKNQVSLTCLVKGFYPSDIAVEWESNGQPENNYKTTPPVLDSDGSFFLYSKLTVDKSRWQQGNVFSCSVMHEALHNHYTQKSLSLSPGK
light: DIVMTQSPASLSASVGETVTITCRASENIYSYLAWYQQKQGKSPQLLVYNARTLAEGVPSRFSGSGSGTQFSLKINSLQPEDFGSFYCQHHYGTPWTFGGGTKLEIKRTVAAPSVFIFPPSDEQLKSGTASVVCLLNNFYPREAKVQWKVDNALQSGNSQESVTEQDSKDSTYSLSSTLTLSKADYEKHKVYACEVTHQGLSSPVTKSFNRGEC
notes: also called chimeric antibody CA-I
B2: MA-Ⅰ鼠源抗TSLP单克隆抗体 (murine IgG1/Ck) (antibody)
heavy: QVQLEQSGAELVKPGASVKMSCKASGYTFTSYWMHWVKQRPGQGLEWIGLIDPSDSDTTYNQKFKGKATLTVDTSSSTAYMQLGSLTSEDSAVYYCSRSLDGYFDHWGQGTLVTVSAAKTTPPSVYPLAPGSAAQTNSMVTLGCLVKGYFPEPVTVTWNSGSLSSGVHTFPAVLQSDLYTLSSSVTVPSSTWPSETVTCNVAHPASSTKVDKKIVPRDCGCKPCICTVPEVSSVFIFPPKPKDVLTITLTPKVTCVVVDISKDDPEVQFSWFVDDVEVHTAQTQPREEQFNSTFRSVSELPIMHQDWLNGKEFKCRVNSAAFPAPIEKTISKTKGRPKAPQVYTIPPPKEQMAKDKVSLTCMITDFFPEDITVEWQWNGQPAENYKNTQPIMDTDGSYFVYSKLNVQKSNWEAGNTFTCSVLHEGLHNHHTEKSLSHSPG
light: DIVMTQSPASLSASVGETVTITCRASENIYSYLAWYQQKQGKSPQLLVYNARTLAEGVPSRFSGSGSGTQFSLKINSLQPEDFGSFYCQHHYGTPWTFGGGTKLEIKADAAPTVSIFPPSSEQLTSGGASVVCFLNNFYPKDINVKWKIDGSERQNGVLNSWTDQDSKDSTYSMSSTLTLTKDEYERHNSYTCEATHKTSTSPIVKSFNRNEC
notes: also called MA-I
B3: MA-Ⅱ鼠源抗TSLP单克隆抗体 (murine IgG1/Ck) (antibody, V domains shown)
VH: QVKLQQSGAELVKPGASVKMSCKASGYTFTTYWMHWVKQRPGQGLEWIGVIDPSDSYITYNQKFKGKATLTVDTSSSTAYMQLSSLTSEDSAVYYCTRSLDGYFDYWGQGTLVTVSA
VL: DIVLTQSPASLSASVGETVTITCRASENIYSYLAWYQQKQGKSPQLLVYNAKTLAEGVPSRFSGSGSGTQFSLKINSLQPEDFGSYYCQHHYGTPWTFGGGTKLEIKA
B4: MA-Ⅲ鼠源抗TSLP单克隆抗体 (murine IgG1/Ck) (antibody, V domains shown)
VH: B3 VH with K3Q, S7P, T31S, Y57D, I58T, A79V, Y106H
VL: B3 VL with L4M, E27G, Y30H, S31N, E56D, F71Y, H91F, Y92W, G93S
B5: MA-Ⅳ鼠源抗TSLP单克隆抗体 (murine IgG1/Ck) (antibody, V domains shown)
VH: B3 VH with Q5E, T31S, Y57D, I58T, Y106H
VL: DIVITQTPASLSASVGETVTITCRASGNIHNYLAWYQQKQGKSPQLLVYNTKTLADGVPSRFSGSGSGTQYSLKINSLQPEDFGSYYCQHFWSTPYTFGGGTKLEIKA
B6: 人源化抗TSLP单克隆抗体HA-Ⅱ (antibody, human IgG1, kappa, L234A L235A, V domains shown)
VH: QVQLVQSGAEVKKPGASVKVSCKASGYTFTSYWMHWVRQAPGQGLEWIGLIDPSDSDTTYNQKFKGRATLTVDTSTSTAYMELSSLRSEDTAVYYCSRSLDGYFDHWGQGTLVTVSS
VL: DIVMTQSPSSLSASVGDRVTITCRASENIYSYLAWYQQKPGKAPKLLVYNARTLAEGVPSRFSGSGSGTDFTLTISSLQPEDFATYYCQHHYGTPWTFGGGTKVEIKR
notes: Humanized from MA-Ⅰ
B7: 人源化抗TSLP单克隆抗体HA-Ⅲ (antibody, human IgG1, kappa, L234A L235A)
heavy: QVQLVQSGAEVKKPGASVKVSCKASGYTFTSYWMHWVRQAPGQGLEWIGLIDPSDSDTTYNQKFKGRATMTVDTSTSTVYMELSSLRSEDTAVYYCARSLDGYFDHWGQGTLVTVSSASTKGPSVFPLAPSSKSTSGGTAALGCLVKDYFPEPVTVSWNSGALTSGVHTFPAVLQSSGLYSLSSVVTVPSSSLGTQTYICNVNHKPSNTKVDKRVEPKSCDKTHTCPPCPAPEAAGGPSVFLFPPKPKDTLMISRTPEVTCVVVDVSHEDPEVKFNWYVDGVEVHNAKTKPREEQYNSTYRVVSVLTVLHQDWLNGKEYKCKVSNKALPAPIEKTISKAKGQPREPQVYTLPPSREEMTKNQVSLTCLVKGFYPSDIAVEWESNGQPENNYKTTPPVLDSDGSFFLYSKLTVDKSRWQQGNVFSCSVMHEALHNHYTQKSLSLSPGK
light: DIQMTQSPSSLSASVGDRVTITCRASENIYSYLAWYQQKPGKAPKLLVYNARTLAEGVPSRFSGSGSGTDFTLTISSLQPEDFATYYCQHHYGTPWTFGGGTKVEIKRTVAAPSVFIFPPSDEQLKSGTASVVCLLNNFYPREAKVQWKVDNALQSGNSQESVTEQDSKDSTYSLSSTLTLSKADYEKHKVYACEVTHQGLSSPVTKSFNRGEC
notes: Humanized from MA-Ⅰ
B8: 人源化抗TSLP单克隆抗体HA-Ⅰ (antibody, human IgG1, kappa, L234A L235A, V domains shown)
VH: B6 VH
VL: B6 VL with A43S
notes: Humanized from MA-Ⅰ; also called HA-1
B9: 人源化抗TSLP单克隆抗体HA-Ⅳ (antibody, human IgG1, kappa, L234A L235A)
heavy: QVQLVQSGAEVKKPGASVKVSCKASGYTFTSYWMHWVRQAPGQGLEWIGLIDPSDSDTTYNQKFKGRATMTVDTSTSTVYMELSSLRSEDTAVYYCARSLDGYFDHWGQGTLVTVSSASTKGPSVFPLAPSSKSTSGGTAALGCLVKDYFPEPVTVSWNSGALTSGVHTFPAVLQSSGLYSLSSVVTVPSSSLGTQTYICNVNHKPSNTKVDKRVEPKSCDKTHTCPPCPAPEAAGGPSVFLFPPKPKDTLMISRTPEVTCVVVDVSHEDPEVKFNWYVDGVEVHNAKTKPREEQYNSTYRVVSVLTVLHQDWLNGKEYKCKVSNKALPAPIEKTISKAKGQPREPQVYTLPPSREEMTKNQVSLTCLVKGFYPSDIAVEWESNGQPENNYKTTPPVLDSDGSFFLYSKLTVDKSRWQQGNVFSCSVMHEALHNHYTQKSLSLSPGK
light: B7 light with Q3V
notes: Humanized from MA-Ⅰ

molecular target: T2, 人TSLP-His (human, UniProt Q969D9 29-159, limits assumed); assay: ELISA, TSLP-His coated, goat anti-human IgG-HRP
T2 construct: also called TSLP(Human); not shown: His tag

EC50 | Binder
0.0131 µg/mL | B1

molecular target: T3, TSLP (人TSLP, thymic stromal lymphopoietin) (human, UniProt Q969D9 29-159, limits assumed); assay: ELISA, TSLP coated, goat anti-mouse IgG-HRP
T3 construct: also called TSLP抗原; 抗原TSLP

EC50 | Binder
0.0011 µg/mL | B2
0.00204 µg/mL | B3
0.00198 µg/mL | B4
0.00557 µg/mL | B5

molecular target: T2, 人TSLP-His; assay: competition ELISA: CRLF2-Fc coated, TSLP-His 10μg/ml plus antibody dilutions, anti-His-HRP

IC50 | Binder
1.52 µg/mL | B2
15.6 µg/mL | B3
2.4 µg/mL | B4
11.8 µg/mL | B5

molecular target: T1, 鼠TSLP-His; assay: ELISA, mouse TSLP-His coated

binding result | Binder
no binding (tested: 16μg/ml) | B6
no binding (tested: 16μg/ml) | B7
no binding (tested: 16μg/ml) | B8
no binding (tested: 16μg/ml) | B9

molecular target: T4, 猴TSLP-His (食蟹猴TSLP) (cynomolgus monkey, UniProt A0A7N9CAT7 29-159); assay: ELISA, cynomolgus TSLP-His coated, goat anti-human IgG-HRP
T4 construct: Bought protein; also called TSLP(Cynomolgus); not shown: His tag
T4 sequence (A0A7N9CAT7 entry or part of it): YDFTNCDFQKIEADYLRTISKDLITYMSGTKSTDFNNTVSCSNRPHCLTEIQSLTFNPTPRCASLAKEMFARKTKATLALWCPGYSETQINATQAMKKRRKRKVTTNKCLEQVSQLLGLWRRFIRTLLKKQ

EC50 | Binder
0.0508 µg/mL | B6
0.0892 µg/mL | B7
0.0273 µg/mL | B8
0.0508 µg/mL | B9
